In assay [1] the target is Mas receptor, endogenous in mouse striatal cells (mouse (endogenous in primary striatal neurons and microglia)) (UniProt P30554). The experiment in a line: proximity ligation.
The target in assay [2] is T1, Mas receptor fused to Rluc (MasR-Rluc) (human), P04201.
T1 chain: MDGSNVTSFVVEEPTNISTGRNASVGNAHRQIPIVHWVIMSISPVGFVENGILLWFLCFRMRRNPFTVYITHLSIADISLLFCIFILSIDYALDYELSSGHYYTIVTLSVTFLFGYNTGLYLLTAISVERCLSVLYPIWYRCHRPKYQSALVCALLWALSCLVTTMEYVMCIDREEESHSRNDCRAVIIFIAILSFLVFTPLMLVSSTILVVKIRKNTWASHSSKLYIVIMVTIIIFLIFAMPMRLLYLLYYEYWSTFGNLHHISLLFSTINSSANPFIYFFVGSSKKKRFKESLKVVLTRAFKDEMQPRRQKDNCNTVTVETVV
The experiment in a line: FRET or BRET. As to conditions: remark: other sources report otherwise. On the technique in general: BRET reads energy transfer from a luciferase to a nearby fluorophore.

Sequence of UniProt P30554 (P30554 whole entry, the tested form may be a part): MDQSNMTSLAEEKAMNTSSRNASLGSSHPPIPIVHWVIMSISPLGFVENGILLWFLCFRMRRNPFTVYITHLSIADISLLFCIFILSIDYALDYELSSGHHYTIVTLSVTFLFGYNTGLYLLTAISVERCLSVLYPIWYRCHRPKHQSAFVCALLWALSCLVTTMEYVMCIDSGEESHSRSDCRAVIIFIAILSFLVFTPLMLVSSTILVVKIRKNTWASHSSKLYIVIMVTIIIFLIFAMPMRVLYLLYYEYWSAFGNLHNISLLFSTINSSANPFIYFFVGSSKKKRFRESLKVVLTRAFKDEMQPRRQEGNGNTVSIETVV

In the case of “Angiotensin AT1 receptor, endogenous in mouse striatal cells (from UniProt P29754 1-359)”, the PLA red dots/cell (striatal neurons) (red dots/cell) in assay [1] amounted to 1.44.

B1: Angiotensin AT1 receptor fused to YFP (AT1R-YFP), P30556 1-359 (receptor)
chain: MILNSSTEDGIKRIQDDCPKAGRHNYIFVMIPTLYSIIFVVGIFGNSLVVIVIYFYMKLKTVASVFLLNLALADLCFLLTLPLWAVYTAMEYRWPFGNYLCKIASASVSFNLYASVFLLTCLSIDRYLAIVHPMKSRLRRTMLVAKVTCIIIWLLAGLASLPAIIHRNVFFIENTNITVCAFHYESQNSTLPIGLGLTKNILGFLFPFLIILTSYTLIWKALKKAYEIQKNKPRNDDIFKIIMAIVLFFFFSWIPHQIFTFLDVLIQLGIIRDCRIADIVDTAMPITICIAYFNNCLNPLFYGFLGKKFKRYFLQLLKYIPPKAKSHSNLSTKMSTLSYRPSDNVSSSTKKPAPCFEVE
B1 yielded a BRET50 in assay [2] of 13 mBU.
